The source of these data is patent publication US12296016B2, “Ceramide-like lipid-based delivery vehicles and uses thereof” (Children's Medical Center Corporation, priority 2018, dated 2025).

The test system of one series is MDCK cells. Put plainly: Transcytosis in MDCK cells (transwell assay, streptavidin pull-down, fluorescence). The protocol: The in vitro transport (transcytosis) of the peptide-GM1 conjugates across a monolayer of MDCK cells, and in vivo transport across an intestinal or nasal barrier into the blood are assessed. The peptide alone are used as negative controls, and the GM1 analogs as positive controls. C6, and C12 fatty acid analogs of ceramide were also included in the experiments as direct comparisons to the GM1 and GM3 species.
MDCK cells were seeded in 0.33 cm^2 inserts 3 days prior in media containing HBSS and […] defatted BSA. Electrical resistance was checked on day of experiment.
• 1) peptide Control • 2) GM1-C6:0-peptide • 3) Peptide-C12 fatty acid • 4) Ceramide-C2-
• 1) Check electrical resistance by EVOM. • 2) Prepare stock solutions above. • 3) Wash cells apical and basolateral with HBSS, without FBS. […]
• 1) Washed Stretavidin Magnetic beads with TBS-T 4×, to remove azide. • 2) Resuspend heads in 800 uL TBS then aliquoted 50 uL out to each tube • 3) Add 1000 μL to streptavidin heads overnight at 4° C. with rotation O/N covered in foil. • 4) Remove media and wash 3×TBS-T. • 5) Elute by addition of 220 ul 95% Formamide. 10 mM EDTA 0.4 mg/ml biotin—2 min@65° C. • 6) Pipetted 100 uL of each sample×2 on 96 well plate • 7) Fluorescence was read out on a microplate reader for Fluorescein channel, and against a standard curve. […]

Series [1] in a line: Nasal absorption of ceramide-C6 reporter peptide conjugate in mice. The conditions noted are these: 2 nmol/kg, blood 15 minutes post dose. It is filed as in vivo, C57BL/6J mice. Here is the method:
A reporter peptide was conjugated to a ceramide-C6 (Cer-C6) was administered to C57BL/6J mice (n=1, from Jackson Labs) at a dose of 2 nmol/kg. GM1-C6 conjugated to the same reported peptide was used as control. A total of 5 μl per nostril was administered over 5 minutes under isoflurane. Blood was collected via cardiac puncture 15 minutes post dose and the amount of the conjugate was evaluated by pulling down with magnetic streptavidin beads followed by elution and plate fluorescence measurement.

The test system of a further series is T84 intestinal cells. Put plainly: Transcytosis across T84 intestinal cells. The class given is in vitro ADME.
For series [2] the following is noted: mouse, in vivo, 2.5 nmol/kg. The protocol: The dose was 2.5 nmol/kg for 7 week old C57B/6J with an intranasal administration volume of 10 μL and an intraperitoneal injection volume of 200 μL.
The conditions of series [3]: mice, gastric gavage. The protocol: FIGS. 4A-4D. In vivo mouse studies. Absorption from intestine into blood for GM-fusion molecules 15 and 30 minutes after gastric gavage (FIG. 4A), and absorption from intestine into liver for GM-fusion molecules 1 hour after gastric gavage (FIG. 4B) are shown. […] Time course for absorption into blood was plotted (FIG. 4C). N=3 independent studies.

Series [4] deals with human microvascular endothelial cells (HMECs). Nature of the series: Confocal fluorescence microscopy of lysosomal transport of GM1-peptides in HMECs. The class given is cell-based. Particulars: 2 μM, 1 hour continuous uptake, Lysotracker-Red. Here is the method:
FIGS. 25A-25C. Confocal fluorescence microscopy images of lysosomal transport of GM1-peptides. (FIG. 25A) A schematic of endosomal sorting in human microvascular endothelial cells (HMECs). (FIG. 25B) Images HMECs incubated either with C16:0-GM1-peptide (top panels), or peptide alone (bottom panel). Cells were treated with 2 μM fluorescently green labeled compound for 1 hour for continuous uptake on coverslips, and imaged in the presence of Lysotracker-Red (red). […] Scale bars=10 μm.

Series [5] in a line: Bioavailability and pharmacokinetics of peptide fused to GM1-C4:0 in rat (gastric route or intravenous injection). The conditions noted are these: day one after intravenous injection. The protocol: Next, the bioavailability and pharmacokinetics of a peptide fused to GM-C4:0 was tested in vivo in rat.

Turning to “glucagon-like peptide-1 (GLP-1) [GLP-1 peptide alone]”, under “mice, gastric gavage”, the “effect on glucose metabolism in glucose tolerance test” value was “no detectable effect on glucose metabolism”. Also, the “absorption after gastric gavage” value (mouse, in vivo) is reported as “not absorbed”.

As to AF488-LC9-oxime-C6-ceramide [Cer-C6], in the series with MDCK cells (MDCK), the “transport with 4° C. temperature block” value is reported as “reduced the uptake”. Also, the “absorption via the nose” value in series [1] is “absorbed more efficiently than peptide conjugated to GM1-C6”; in series [1] (listed as ceramide C6), “absorbed via the nose”; in series [1] (listed as ceramide-C6-reporter peptide conjugate), “can be absorbed via nose in mice”. Also, the “transcytosis across T84 intestinal cells” value in the series with T84 intestinal cells is “greater than for peptides fused to GM1 or GM3 species”.

In series [2], `CCCCCCCCCCCCC/C=C/[C@@H](O)[C@H](CO[C@@H]1O[C@H](CO)[C@@H](O[C@@H]2O[C@H](CO)[C@H](O[C@@H]3O[C@H](CO)[C@H](O)[C@H](O[C@@H]4O[C@H](CO)[C@H](O)[C@H](O)[C@H]4O)[C@H]3NC(C)=O)[C@H](O[C@]3(C(=O)O)C[C@H](O)[C@@H](NC(C)=O)[C@H](C=NOCC(=O)NCCCC[C@@H](NC(=O)CNC(=O)[C@@H](CO)NC(=O)CNC(=O)[C@@H](CCCNC(=N)N)NC(=O)CNC(=O)[C@@H](Cc4ccc(O)cc4)NC(=O)CNC(=O)[C@@H](CO)NC(=O)CNC(=O)[C@@H](CCCCNC(=O)CCCC[C@@H]4SC[C@@H]5NC(=O)N[C@@H]54)NC(=O)[C@H](N)Cc4cn(CCCCCCNC(=O)c5ccc(-c6c7ccc(=N)c(S(=O)(=O)O)c-7oc7c(S(=O)(=O)O)c(N)ccc67)c(C(=O)O)c5)nn4)C(N)=O)O3)[C@H]2O)[C@H](O)[C@H]1O)NC(=O)CCCCC` [peptide fused to GM1-C6:0] registered a bioavailability of 24.4%.

Take `N=C(N)NCCC[C@@H](NC(=O)CNC(=O)[C@@H](Cc1ccc(O)cc1)NC(=O)CNC(=O)[C@@H](CO)NC(=O)CNC(=O)[C@@H](CCCCNC(=O)CCCC[C@@H]1SC[C@@H]2NC(=O)N[C@@H]21)NC(=O)[C@H](N)Cc1cn(CCCCCCNC(=O)c2ccc(-c3c4ccc(=N)c(S(=O)(=O)O)c-4oc4c(S(=O)(=O)O)c(N)ccc34)c(C(=O)O)c2)nn1)C(=O)NCC(=O)N[C@H](CO)C(=O)NCC(=O)N[C@H](CCCCNC(=O)CON)C(N)=O` [peptide alone]: the “transcytosis across MDCK cell monolayer” value with MDCK cells (apical to basolateral, 37° C.) was “did not cross the epithelial barrier”. Besides, the bioavailability in series [2] stood at 1.3%. The “absorption from intestine into blood and liver” value in series [3] is “not absorbed”. Also, the intracellular localization result in series [4] was “did not enter into cells”. Besides, the “level in rat serum” value in series [5] is reported as 10.8 nmol/kg.
